Numbered stars: 1 amine (or outer) side, 2 acyl side, 3 side chain; on linkers, the order of the positions; unused ones are H or OH. Bridge positions count the residues as written; N and C are the ends. Side chains are listed from the residue outwards. Ends that are not written are not given here. * marks the point of attachment. C20 diacid = O=C(O)CCCCCCCCCCCCCCCCCCC(=O)*; C18 diacid = O=C(O)CCCCCCCCCCCCCCCCC(=O)*; C16 diacid = O=C(O)CCCCCCCCCCCCCCC(=O)*; γGlu = O=C(O)[C@H](CCC(=O)[*:2])N[*:1]; C14 diacid = O=C(O)CCCCCCCCCCCCC(=O)*

This test addresses T1, human calcitonin receptor (human, UniProt P30988 25-474).
T1 sequence (looked up): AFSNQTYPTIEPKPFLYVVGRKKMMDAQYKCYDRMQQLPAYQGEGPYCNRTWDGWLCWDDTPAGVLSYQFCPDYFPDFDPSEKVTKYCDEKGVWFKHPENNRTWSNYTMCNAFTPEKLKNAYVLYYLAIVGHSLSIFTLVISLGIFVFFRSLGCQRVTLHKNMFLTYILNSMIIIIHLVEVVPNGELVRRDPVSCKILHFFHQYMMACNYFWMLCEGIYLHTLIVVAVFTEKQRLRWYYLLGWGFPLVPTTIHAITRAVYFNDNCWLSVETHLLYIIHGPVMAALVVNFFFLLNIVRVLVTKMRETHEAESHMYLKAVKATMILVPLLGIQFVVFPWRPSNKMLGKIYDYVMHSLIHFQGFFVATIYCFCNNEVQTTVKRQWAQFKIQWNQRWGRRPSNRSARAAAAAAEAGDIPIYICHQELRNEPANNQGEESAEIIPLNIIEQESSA
As to the kind of experiment: cell-based or functional assay.

B1: N^ε1-[(4S)-4-carboxy-4-(13-carboxytridecanoylamino)butanoyl]-[Arg17,Pro21,Pro27,His34]-h-amylin (peptide)
peptide: K([γGlu-C14 diacid])CNTATCATQRLANFLRHSSPNFGAIPSSTNVGHNTY-NH2
modifications: disulfide 2-7; N-terminus assumed
SMILES: CC[C@H](C)[C@H](NC(=O)[C@H](C)NC(=O)CNC(=O)[C@H](Cc1ccccc1)NC(=O)[C@H](CC(N)=O)NC(=O)[C@@H]1CCCN1C(=O)[C@H](CO)NC(=O)[C@H](CO)NC(=O)[C@H](Cc1c[nH]cn1)NC(=O)[C@H](CCCNC(=N)N)NC(=O)[C@H](CC(C)C)NC(=O)[C@H](Cc1ccccc1)NC(=O)[C@H](CC(N)=O)NC(=O)[C@H](C)NC(=O)[C@H](CC(C)C)NC(=O)[C@H](CCCNC(=N)N)NC(=O)[C@H](CCC(N)=O)NC(=O)[C@@H](NC(=O)[C@H](C)NC(=O)[C@@H]1CSSC[C@H](NC(=O)[C@@H](N)CCCCNC(=O)CC[C@H](NC(=O)CCCCCCCCCCCCC(=O)O)C(=O)O)C(=O)N[C@@H](CC(N)=O)C(=O)N[C@@H]([C@@H](C)O)C(=O)N[C@@H](C)C(=O)N[C@@H]([C@@H](C)O)C(=O)N1)[C@@H](C)O)C(=O)N1CCC[C@H]1C(=O)N[C@@H](CO)C(=O)N[C@@H](CO)C(=O)N[C@H](C(=O)N[C@@H](CC(N)=O)C(=O)N[C@H](C(=O)NCC(=O)N[C@@H](Cc1c[nH]cn1)C(=O)N[C@@H](CC(N)=O)C(=O)N[C@H](C(=O)N[C@@H](Cc1ccc(O)cc1)C(N)=O)[C@@H](C)O)C(C)C)[C@@H](C)O
On to B1, for which the “hCTR funct. EC50 (pM)” value was 1090 pM.

B2: N^ε1-[(4S)-4-carboxy-4-(19-carboxynonadecanoylamino)butanoyl]-[Glu14,Arg17,Pro21,Pro27,His34,Glu35]-h-amylin (peptide)
peptide: K([γGlu-C20 diacid])CNTATCATQRLAEFLRHSSPNFGAIPSSTNVGHETY-NH2
modifications: disulfide 2-7; N-terminus assumed
SMILES: CC[C@H](C)[C@H](NC(=O)[C@H](C)NC(=O)CNC(=O)[C@H](Cc1ccccc1)NC(=O)[C@H](CC(N)=O)NC(=O)[C@@H]1CCCN1C(=O)[C@H](CO)NC(=O)[C@H](CO)NC(=O)[C@H](Cc1c[nH]cn1)NC(=O)[C@H](CCCNC(=N)N)NC(=O)[C@H](CC(C)C)NC(=O)[C@H](Cc1ccccc1)NC(=O)[C@H](CCC(=O)O)NC(=O)[C@H](C)NC(=O)[C@H](CC(C)C)NC(=O)[C@H](CCCNC(=N)N)NC(=O)[C@H](CCC(N)=O)NC(=O)[C@@H](NC(=O)[C@H](C)NC(=O)[C@@H]1CSSC[C@H](NC(=O)[C@@H](N)CCCCNC(=O)CC[C@H](NC(=O)CCCCCCCCCCCCCCCCCCC(=O)O)C(=O)O)C(=O)N[C@@H](CC(N)=O)C(=O)N[C@@H]([C@@H](C)O)C(=O)N[C@@H](C)C(=O)N[C@@H]([C@@H](C)O)C(=O)N1)[C@@H](C)O)C(=O)N1CCC[C@H]1C(=O)N[C@@H](CO)C(=O)N[C@@H](CO)C(=O)N[C@H](C(=O)N[C@@H](CC(N)=O)C(=O)N[C@H](C(=O)NCC(=O)N[C@@H](Cc1c[nH]cn1)C(=O)N[C@@H](CCC(=O)O)C(=O)N[C@H](C(=O)N[C@@H](Cc1ccc(O)cc1)C(N)=O)[C@@H](C)O)C(C)C)[C@@H](C)O
notes: also called compound 107
Take B2: the “hCTR funct. EC50 (pM)” value was 2540 pM.

B3: N^ε1-[(4S)-4-carboxy-4-(19-carboxynonadecanoylamino)butanoyl]-[Ala14,Arg17,Pro21,Pro27,His34]-h-amylin (peptide)
peptide: K([γGlu-C20 diacid])CNTATCATQRLAAFLRHSSPNFGAIPSSTNVGHNTY-NH2
modifications: disulfide 2-7; N-terminus assumed
SMILES: CC[C@H](C)[C@H](NC(=O)[C@H](C)NC(=O)CNC(=O)[C@H](Cc1ccccc1)NC(=O)[C@H](CC(N)=O)NC(=O)[C@@H]1CCCN1C(=O)[C@H](CO)NC(=O)[C@H](CO)NC(=O)[C@H](Cc1c[nH]cn1)NC(=O)[C@H](CCCNC(=N)N)NC(=O)[C@H](CC(C)C)NC(=O)[C@H](Cc1ccccc1)NC(=O)[C@H](C)NC(=O)[C@H](C)NC(=O)[C@H](CC(C)C)NC(=O)[C@H](CCCNC(=N)N)NC(=O)[C@H](CCC(N)=O)NC(=O)[C@@H](NC(=O)[C@H](C)NC(=O)[C@@H]1CSSC[C@H](NC(=O)[C@@H](N)CCCCNC(=O)CC[C@H](NC(=O)CCCCCCCCCCCCCCCCCCC(=O)O)C(=O)O)C(=O)N[C@@H](CC(N)=O)C(=O)N[C@@H]([C@@H](C)O)C(=O)N[C@@H](C)C(=O)N[C@@H]([C@@H](C)O)C(=O)N1)[C@@H](C)O)C(=O)N1CCC[C@H]1C(=O)N[C@@H](CO)C(=O)N[C@@H](CO)C(=O)N[C@H](C(=O)N[C@@H](CC(N)=O)C(=O)N[C@H](C(=O)NCC(=O)N[C@@H](Cc1c[nH]cn1)C(=O)N[C@@H](CC(N)=O)C(=O)N[C@H](C(=O)N[C@@H](Cc1ccc(O)cc1)C(N)=O)[C@@H](C)O)C(C)C)[C@@H](C)O
notes: also called compound 93
As for B3, the “hCTR funct. EC50 (pM)” value amounted to 1140 pM.

B4: N^ε1-[(4S)-4-carboxy-4-(17-carboxyheptadecanoylamino)butanoyl]-[Arg17,Pro21,Pro27,His34]-h-amylin (peptide)
peptide: K([γGlu-C18 diacid])CNTATCATQRLANFLRHSSPNFGAIPSSTNVGHNTY-NH2
modifications: disulfide 2-7; N-terminus assumed
SMILES: CC[C@H](C)[C@H](NC(=O)[C@H](C)NC(=O)CNC(=O)[C@H](Cc1ccccc1)NC(=O)[C@H](CC(N)=O)NC(=O)[C@@H]1CCCN1C(=O)[C@H](CO)NC(=O)[C@H](CO)NC(=O)[C@H](Cc1c[nH]cn1)NC(=O)[C@H](CCCNC(=N)N)NC(=O)[C@H](CC(C)C)NC(=O)[C@H](Cc1ccccc1)NC(=O)[C@H](CC(N)=O)NC(=O)[C@H](C)NC(=O)[C@H](CC(C)C)NC(=O)[C@H](CCCNC(=N)N)NC(=O)[C@H](CCC(N)=O)NC(=O)[C@@H](NC(=O)[C@H](C)NC(=O)[C@@H]1CSSC[C@H](NC(=O)[C@@H](N)CCCCNC(=O)CC[C@H](NC(=O)CCCCCCCCCCCCCCCCC(=O)O)C(=O)O)C(=O)N[C@@H](CC(N)=O)C(=O)N[C@@H]([C@@H](C)O)C(=O)N[C@@H](C)C(=O)N[C@@H]([C@@H](C)O)C(=O)N1)[C@@H](C)O)C(=O)N1CCC[C@H]1C(=O)N[C@@H](CO)C(=O)N[C@@H](CO)C(=O)N[C@H](C(=O)N[C@@H](CC(N)=O)C(=O)N[C@H](C(=O)NCC(=O)N[C@@H](Cc1c[nH]cn1)C(=O)N[C@@H](CC(N)=O)C(=O)N[C@H](C(=O)N[C@@H](Cc1ccc(O)cc1)C(N)=O)[C@@H](C)O)C(C)C)[C@@H](C)O
For the molecule B4, the “hCTR funct. EC50 (pM)” value was 5850 pM.

B5: N^ε1-[(4S)-4-carboxy-4-(19-carboxynonadecanoylamino)butanoyl]-[Asp14,Arg17,Pro21,Pro27,Pro34,Glu35]-h-amylin (peptide)
peptide: K([γGlu-C20 diacid])CNTATCATQRLADFLRHSSPNFGAIPSSTNVGPETY-NH2
modifications: disulfide 2-7; N-terminus assumed
SMILES: CC[C@H](C)[C@H](NC(=O)[C@H](C)NC(=O)CNC(=O)[C@H](Cc1ccccc1)NC(=O)[C@H](CC(N)=O)NC(=O)[C@@H]1CCCN1C(=O)[C@H](CO)NC(=O)[C@H](CO)NC(=O)[C@H](Cc1c[nH]cn1)NC(=O)[C@H](CCCNC(=N)N)NC(=O)[C@H](CC(C)C)NC(=O)[C@H](Cc1ccccc1)NC(=O)[C@H](CC(=O)O)NC(=O)[C@H](C)NC(=O)[C@H](CC(C)C)NC(=O)[C@H](CCCNC(=N)N)NC(=O)[C@H](CCC(N)=O)NC(=O)[C@@H](NC(=O)[C@H](C)NC(=O)[C@@H]1CSSC[C@H](NC(=O)[C@@H](N)CCCCNC(=O)CC[C@H](NC(=O)CCCCCCCCCCCCCCCCCCC(=O)O)C(=O)O)C(=O)N[C@@H](CC(N)=O)C(=O)N[C@@H]([C@@H](C)O)C(=O)N[C@@H](C)C(=O)N[C@@H]([C@@H](C)O)C(=O)N1)[C@@H](C)O)C(=O)N1CCC[C@H]1C(=O)N[C@@H](CO)C(=O)N[C@@H](CO)C(=O)N[C@H](C(=O)N[C@@H](CC(N)=O)C(=O)N[C@H](C(=O)NCC(=O)N1CCC[C@H]1C(=O)N[C@@H](CCC(=O)O)C(=O)N[C@H](C(=O)N[C@@H](Cc1ccc(O)cc1)C(N)=O)[C@@H](C)O)C(C)C)[C@@H](C)O
On to B5, for which the “hCTR funct. EC50 (pM)” value is 1120 pM.

B6: N^ε1-[(4S)-4-carboxy-4-(15-carboxypentadecanoylamino)butanoyl]-[Arg17,Pro21,Pro27,His34]-h-amylin (peptide)
peptide: K([γGlu-C16 diacid])CNTATCATQRLANFLRHSSPNFGAIPSSTNVGHNTY-NH2
modifications: disulfide 2-7; N-terminus assumed
SMILES: CC[C@H](C)[C@H](NC(=O)[C@H](C)NC(=O)CNC(=O)[C@H](Cc1ccccc1)NC(=O)[C@H](CC(N)=O)NC(=O)[C@@H]1CCCN1C(=O)[C@H](CO)NC(=O)[C@H](CO)NC(=O)[C@H](Cc1c[nH]cn1)NC(=O)[C@H](CCCNC(=N)N)NC(=O)[C@H](CC(C)C)NC(=O)[C@H](Cc1ccccc1)NC(=O)[C@H](CC(N)=O)NC(=O)[C@H](C)NC(=O)[C@H](CC(C)C)NC(=O)[C@H](CCCNC(=N)N)NC(=O)[C@H](CCC(N)=O)NC(=O)[C@@H](NC(=O)[C@H](C)NC(=O)[C@@H]1CSSC[C@H](NC(=O)[C@@H](N)CCCCNC(=O)CC[C@H](NC(=O)CCCCCCCCCCCCCCC(=O)O)C(=O)O)C(=O)N[C@@H](CC(N)=O)C(=O)N[C@@H]([C@@H](C)O)C(=O)N[C@@H](C)C(=O)N[C@@H]([C@@H](C)O)C(=O)N1)[C@@H](C)O)C(=O)N1CCC[C@H]1C(=O)N[C@@H](CO)C(=O)N[C@@H](CO)C(=O)N[C@H](C(=O)N[C@@H](CC(N)=O)C(=O)N[C@H](C(=O)NCC(=O)N[C@@H](Cc1c[nH]cn1)C(=O)N[C@@H](CC(N)=O)C(=O)N[C@H](C(=O)N[C@@H](Cc1ccc(O)cc1)C(N)=O)[C@@H](C)O)C(C)C)[C@@H](C)O
On to B6, for which the “hCTR funct. EC50 (pM)” value stood at 2210 pM.

These data come from patent publication US20140087995A1 (published 2014).
